Values quoted from earlier work, collected in patent US11608532B2, “Precision medicine for treating and preventing suicidality” (Indiana University Research and Technology Corporation, priority 2017, dated 2023).
Read-outs that look alike come from different tables or passages of the source.

Tested on: individual top biomarkers for suicidality

B1: CAT-354 (antibody, chains of the INN, looked up, V domains shown)
VH: QVQLVQSGAEVKKPGASVKVSCKASGYTFTNYGLSWVRQAPGQGLEWMGWISANNGDTNYGQEFQGRVTMTTDTSTSTAYMELRSLRSDDTAVYYCARDSSSSWARWFFDLWGRGTLVTVSS
VL: SYVLTQPPSVSVAPGKTARITCGGNIIGSKLVHWYQQKPGQAPVLVIYDDGDRPSGIPERFSGSNSGNTATLTISRVEAGDEADYYCQVWDTGSDPVVFGGGTKLTVL
Step 6 Drugs that Modulate the Biomarker in Opposite Direction to Suicide (biomarker IL13 (interleukin 13)): CAT-354

B2: certolizumab (antibody, chains of the INN, looked up, V domains shown)
VH: EVQLVESGGGLVQPGGSLRLSCAASGYVFTDYGMNWVRQAPGKGLEWMGWINTYIGEPIYADSVKGRFTFSLDTSKSTAYLQMNSLRAEDTAVYYCARGYRSYAMDYWGQGTLVTVSS
VL: DIQMTQSPSSLSASVGDRVTITCKASQNVGTNVAWYQQKPGKAPKALIYSASFLYSGVPYRFSGSGSGTDFTLTISSLQPEDFATYYCQQYNIYPLTFGQGTKVEIK
TNF modulated by drug in opposite direction to suicide (D. Top Biomarkers in Bipolar Disorder, direction of change in suicidality (I) DE/1, (I) AP/1): certolizumab,

B3: siltuximab (antibody, chains of the INN, looked up, V domains shown)
VH: EVQLVESGGKLLKPGGSLKLSCAASGFTFSSFAMSWFRQSPEKRLEWVAEISSGGSYTYYPDTVTGRFTISRDNAKNTLYLEMSSLRSEDTAMYYCARGLWGYYALDYWGQGTSVTVSS
VL: QIVLIQSPAIMSASPGEKVTMTCSASSSVSYMYWYQQKPGSSPRLLIYDTSNLASGVPVRFSGSGSGTSYSLTISRMEAEDAATYYCQQWSGYPYTFGGGTKLEIK
IL6 modulated by drug in opposite direction to suicide (B. Top Biomarkers in Males, direction of change in suicidality I, AP/2): siltuximab

B4: Siltuximab (antibody, chains of the INN, looked up, V domains shown)
VH: EVQLVESGGKLLKPGGSLKLSCAASGFTFSSFAMSWFRQSPEKRLEWVAEISSGGSYTYYPDTVTGRFTISRDNAKNTLYLEMSSLRSEDTAMYYCARGLWGYYALDYWGQGTSVTVSS
VL: QIVLIQSPAIMSASPGEKVTMTCSASSSVSYMYWYQQKPGSSPRLLIYDTSNLASGVPVRFSGSGSGTSYSLTISRMEAEDAATYYCQQWSGYPYTFGGGTKLEIK
Step 6 Drugs that Modulate the Biomarker in Opposite Direction to Suicide (biomarker IL6 (interleukin 6)): Siltuximab
